Assay results published in the Immune Epitope Database (IEDB).

Columns and labels:
[1] = target: HLA-A*02:01; experiment: IEDB peptide-MHC binding, purified MHC/direct/fluorescence; filed as Kd, often an IC50 or EC50 that approximates it; ≥ and ≤ were set here for values at or beyond the usual limits of such assays
[2] = target: HLA-A*26:01; experiment: as above
[3] = target: HLA-A*69:01; experiment: as above
[4] = target: HLA-B*15:01; experiment: as above
[5] = target: HLA-B*58:01; experiment: as above
[6] = target: HLA-B*46:01; experiment: IEDB peptide-MHC binding, purified MHC/competitive/fluorescence; filed as Kd, often an IC50 or EC50 that approximates it; ≥ and ≤ were set here for values at or beyond the usual limits of such assays
[7] = target: HLA-A*31:01; experiment: IEDB peptide-MHC binding, purified MHC/competitive/radioactivity; filed as Kd, often an IC50 or EC50 that approximates it; ≥ and ≤ were set here for values at or beyond the usual limits of such assays; details: source organism: SARS coronavirus Tor2
[8] = target: HLA-A*33:01; experiment: as above; details: source organism: SARS coronavirus Tor2
[9] = target: HLA-A*68:01; experiment: as above; details: source organism: SARS coronavirus Tor2
[10] = target: HLA-A*01:01; experiment: IEDB peptide-MHC binding, purified MHC/direct/fluorescence; filed as Kd, often an IC50 or EC50 that approximates it; ≥ and ≤ were set here for values at or beyond the usual limits of such assays
[11] = target: HLA-A*03:01; experiment: as above
[12] = target: HLA-A*11:01; experiment: as above
[13] = target: HLA-A*31:01; experiment: as above
[14] = target: HLA-B*07:02; experiment: as above
[15] = target: HLA-B*08:01; experiment: as above
[16] = target: HLA-B*27:05; experiment: as above
[17] = target: HLA-B*40:01; experiment: as above
[18] = target: HLA-B*44:02; experiment: as above
[19] = target: HLA-B*08:01; experiment: IEDB peptide-MHC binding, purified MHC/competitive/radioactivity; filed as Kd, often an IC50 or EC50 that approximates it; ≥ and ≤ were set here for values at or beyond the usual limits of such assays
[20] = target: HLA-B*15:01; experiment: as above; details: source organism: Vaccinia virus WR
[21] = target: HLA-B*46:01; experiment: IEDB peptide-MHC binding, purified MHC/direct/fluorescence; filed as Kd, often an IC50 or EC50 that approximates it; ≥ and ≤ were set here for values at or beyond the usual limits of such assays
[22] = target: HLA-A*02:01; experiment: IEDB peptide-MHC binding, purified MHC/competitive/radioactivity; filed as Kd, often an IC50 or EC50 that approximates it; ≥ and ≤ were set here for values at or beyond the usual limits of such assays
[23] = target: HLA-A*02:02; experiment: as above
[24] = target: HLA-A*02:03; experiment: as above
[25] = target: HLA-A*02:06; experiment: as above
[26] = target: HLA-A*68:02; experiment: as above
[27] = target: HLA-A*30:02; experiment: as above; details: source organism: Dengue virus 3 Martinique/1243/1999
[28] = target: HLA-A*24:03; experiment: IEDB peptide-MHC binding, purified MHC/direct/fluorescence; filed as Kd, often an IC50 or EC50 that approximates it; ≥ and ≤ were set here for values at or beyond the usual limits of such assays
[29] = target: HLA-A*02:01; experiment: IEDB peptide-MHC binding, purified MHC/competitive/fluorescence; filed as Kd, often an IC50 or EC50 that approximates it; ≥ and ≤ were set here for values at or beyond the usual limits of such assays; details: source organism: Escherichia coli
[30] = target: HLA-A*26:01; experiment: as above; details: source organism: Escherichia coli
[31] = target: HLA-B*51:01; experiment: as above; details: source organism: Campylobacter jejuni subsp. jejuni NCTC 11168 = ATCC 700819
[32] = target: HLA-A*23:01; experiment: IEDB peptide-MHC binding, purified MHC/competitive/radioactivity; filed as Kd, often an IC50 or EC50 that approximates it; ≥ and ≤ were set here for values at or beyond the usual limits of such assays; details: source organism: Dengue virus 1 Brazil/97-11/1997
[33] = target: HLA-A*24:02; experiment: as above; details: source organism: Dengue virus 1 Brazil/97-11/1997
[34] = target: HLA-A*03:01; experiment: as above; details: source organism: Dengue virus 2 Jamaica/1409/1983
[35] = target: HLA-A*30:01; experiment: as above; details: source organism: Dengue virus 2 Jamaica/1409/1983
[36] = source organism: Vibrio cholerae
[37] = source organism: Vaccinia virus WR
[38] = source organism: Giardia lamblia ATCC 50803
[39] = source organism: Mammarenavirus lassaense
[40] = source organism: Trypanosoma cruzi
[41] = source organism: dengue virus type 3
[42] = source organism: Triticum aestivum
[43] = source organism: Salmonella enterica subsp. enterica serovar Typhimurium

In the case of YIFFASFYY, the Kd ([1]; source organism: SARS-CoV1) is reported as 6820 nM, the Kd ([2]; source organism: SARS-CoV1) is reported as 527 nM and the Kd ([3]; source organism: SARS-CoV1) is reported as 738 nM. The Kd ([4]; source organism: SARS-CoV1) was 3710 nM, the Kd ([5]; source organism: SARS-CoV1) was 3120 nM and the Kd ([6]; source organism: SARS-CoV1) was at least 20000 nM. The Kd [7] was 784 nM, the Kd [8] was 641 nM and the Kd [9] was 1.7 nM.

AEIDRSFKP was tested, and the Kd [10, 36] was at least 20000 nM, the Kd [1, 36] was at least 20000 nM and the Kd [11, 36] was at least 20000 nM. The Kd [12, 36] was at least 20000 nM, the Kd [2, 36] was at least 20000 nM and the Kd [13, 36] was at least 20000 nM. For the same sequence, the Kd [3, 36] was at least 20000 nM, the Kd [14, 36] was at least 20000 nM and the Kd [15, 36] was at least 20000 nM. The Kd [4, 36] was at least 20000 nM, the Kd [16, 36] was at least 20000 nM and the Kd [17, 36] was 1510 nM. It also gave a Kd [18, 36] of at least 20000 nM and a Kd [5, 36] of at least 20000 nM.

For EFINKFLEF, the Kd [19, 37] was 370 nM and the Kd [20] was 359 nM.

Sequence VIQLNRKSY has a Kd ([21]; source organism: West Nile virus) of at least 20000 nM.

Work on DIIRAHPWF yielded a Kd [10, 38] of at least 20000 nM, a Kd [11, 38] of 8160 nM and a Kd [12, 38] of at least 20000 nM. For the same sequence, the Kd [2, 38] was 286 nM, the Kd [13, 38] was at least 20000 nM and the Kd [3, 38] was at least 20000 nM. For the same sequence, the Kd [14, 38] was at least 20000 nM, the Kd [15, 38] was 9920 nM and the Kd [4, 38] was 16600 nM. For the same sequence, the Kd [16, 38] was at least 20000 nM, the Kd [17, 38] was at least 20000 nM and the Kd [18, 38] was at least 20000 nM. It also gave a Kd [5, 38] of at least 20000 nM.

AAGLQDCT gave a Kd ([22]; source organism: Hepatitis C virus (isolate 1)) of at least 50000 nM.

With KQFKQDAKY the Kd [4, 39] was 173 nM and the Kd [21, 39] was at least 20000 nM.

GLLPLLLLLL gave a Kd [22, 40] of 66 nM, a Kd [23, 40] of 89.6 nM and a Kd [24, 40] of 89.3 nM. For the same sequence, the Kd [25, 40] was 16.5 nM and the Kd [26, 40] was at least 28200 nM.

Work on YLLMHLVSL yielded a Kd [23, 37] of 0.175 nM, a Kd [24, 37] of 1.4 nM and a Kd [25, 37] of 0.254 nM. For the same sequence, the Kd [19, 37] was 1160 nM.

With TSEHGGRAY the Kd [10, 41] was 337 nM, the Kd [1, 41] was at least 20000 nM and the Kd [11, 41] was at least 20000 nM. The Kd [12, 41] was at least 20000 nM, the Kd [13, 41] was at least 20000 nM and the Kd [3, 41] was at least 20000 nM. The Kd [14, 41] was at least 20000 nM, the Kd [4, 41] was 248 nM and the Kd [16, 41] was at least 20000 nM. The Kd [17, 41] was at least 20000 nM, the Kd [18, 41] was at least 20000 nM and the Kd [5, 41] was at least 20000 nM. For the same sequence, the Kd [27] was at least 67200 nM.

In the case of LLGLWGIAAS, the Kd [22, 40] is reported as 2500 nM, the Kd [23, 40] is reported as 1580 nM and the Kd [24, 40] is reported as 680 nM. For the same sequence, the Kd [25, 40] was 9130 nM and the Kd [26, 40] was at least 111000 nM.

With LLGLWGFAAA the Kd [22, 40] was 69.1 nM, the Kd [23, 40] was 28.8 nM and the Kd [24, 40] was 0.552 nM. The Kd [25, 40] was 49.4 nM and the Kd [26, 40] was at least 125000 nM.

In the case of SLNFMGYVI, the Kd ([22]; source organism: Hepatitis B virus ayw/France/Tiollais/1979) is reported as 1320 nM.

Work on SQVSFQQPL yielded a Kd [22, 42] of 256 nM, a Kd [23, 42] of 4.46 nM and a Kd [24, 42] of 138 nM. The Kd [25, 42] was 14.3 nM and the Kd [26, 42] was 206 nM.

For IYKNKISDF, the Kd ([28]; source organism: Cryptosporidium parvum) was 130 nM.

Work on PYATGPLVF yielded a Kd ([28]; source organism: Mycobacterium tuberculosis) of 382 nM.

Work on ELISSAFKV yielded a Kd [29] of 17.6 nM and a Kd [30] of 4060 nM.

TQLMPFGCLL showed a Kd ([22]; source organism: Homo sapiens) of 257 nM.

YQKKNASVY gave a Kd [4, 43] of 330 nM, a Kd [16, 43] of 5060 nM and a Kd ([6]; source organism: Salmonella enterica subsp. enterica serovar Typhi) of 293 nM.

LSILPFFIV was tested, and the Kd [31] was at least 20000 nM.

TMDGILKSI was tested, and the Kd ([22]; source organism: Lassa virus GA391) was at least 25000 nM.

VFKKRNLTI showed a Kd [32] of 198 nM, a Kd [33] of 882 nM and a Kd ([19]; source organism: Dengue virus 1 Brazil/97-11/1997) of 75.9 nM.

With AQAVMEMTY the Kd ([21]; source organism: Yellow fever virus) was at least 20000 nM.

Work on IRQMEGEGVL yielded a Kd ([19]; source organism: Dengue virus 3 Martinique/1243/1999) of 232 nM.

Work on ELKTRYHSI yielded a Kd [19, 37] of 983 nM.

Sequence LSRYVARL has a Kd ([22]; source organism: Hepatitis B virus) of at least 50000 nM.

SYLQAIGIL gave a Kd ([28]; source organism: Listeria monocytogenes) of 1.1 nM.

Sequence MLRTRVGTK has a Kd [34] of 25.6 nM, a Kd [35] of 333 nM and a Kd ([19]; source organism: Dengue virus 2 Jamaica/1409/1983) of 1110 nM.

RILGAVAKV showed a Kd ([22]; source organism: Homo sapiens) of 91 nM.
